Measurements reported in patent publication US20250084176A1 (F STAR BETA, published 2025).

T1: human GITR (human, UniProt Q9Y5U5 26-161, limits assumed)
T1 sequence (looked up): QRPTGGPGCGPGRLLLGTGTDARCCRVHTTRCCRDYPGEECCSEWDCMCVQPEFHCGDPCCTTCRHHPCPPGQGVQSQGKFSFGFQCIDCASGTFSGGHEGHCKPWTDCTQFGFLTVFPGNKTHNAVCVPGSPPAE

T2: human OX40 (human, UniProt P43489 29-216, limits assumed)
T2 sequence (looked up): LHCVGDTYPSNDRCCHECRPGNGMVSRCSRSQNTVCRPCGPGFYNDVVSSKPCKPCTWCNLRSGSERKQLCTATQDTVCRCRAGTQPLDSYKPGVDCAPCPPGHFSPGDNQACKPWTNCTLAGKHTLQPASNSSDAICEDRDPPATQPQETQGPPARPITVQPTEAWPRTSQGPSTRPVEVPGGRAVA


Legend:
hCD137-mFc-Avi = biological target: T3, hCD137-mFc-Avi (human; mouse, UniProt Q07011 24-186, one biotin on the Avi sequence of each monomer (BirA); unbiotinylated in the SPR of Example 5.6); assay: flow cytometry of the yeast-displayed clone, 10 nM dimeric human antigen
T3 construct: Made in-house in HEK293-6E; also called human CD137-mFc-Avi; dimeric human CD137; not shown: mouse IgG2a Fc domain (mIgG2a Fc)

human GITR = biological target: T1, human GITR; assay: SPR (Biacore T200), receptor amine-coupled to CM5 chip
Experimental: (§1) The specificity of the anti-human CD137 Fcabs for human CD137 compared to other related TNFSFR family members was tested. 8 of the Fcabs were tested in mock mAb² (HeID1.3) format and measured by SPR in a Biacore T200 (GE Healthcare) by testing for binding to other human TNFRSF receptors: CD40, OX40 and GITR. Amine coupling (amine coupling kit, GE Healthcare, BR-1000-50) was used to coat human CD40, GITR and OX40 to approximately 1000 RU in Biacore CM5 chips (GE Healthcare, cat no 29149603). […] The chip was regenerated by injection of 10 mM glycine pH 2.5 for 12 s at 30 μl/min. Antibodies specific to the different TNFRSF members were used as positive controls to verify Biacore chip coating. Data was double reference subtracted and analysed using BIAevaluation 3.2 software.

human OX40 = biological target: T2, human OX40; assay: as above
Experimental: as §1

human CD40 = human CD40 (human, UniProt P25942 21-193); assay: as above
Experimental: as §1

[1] = biological target: human CD137, full length, on cells (human, UniProt Q07011 24-255); assay: cell-based or functional assay
human CD137, full length, on cells, sequence (Q07011 24-255): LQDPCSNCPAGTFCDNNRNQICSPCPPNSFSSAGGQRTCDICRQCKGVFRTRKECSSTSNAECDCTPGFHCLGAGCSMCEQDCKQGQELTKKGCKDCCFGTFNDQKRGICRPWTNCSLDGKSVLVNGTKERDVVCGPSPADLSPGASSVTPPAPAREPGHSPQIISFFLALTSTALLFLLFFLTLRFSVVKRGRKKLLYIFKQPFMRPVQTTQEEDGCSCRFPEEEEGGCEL

T3 sequence (Q07011 24-186): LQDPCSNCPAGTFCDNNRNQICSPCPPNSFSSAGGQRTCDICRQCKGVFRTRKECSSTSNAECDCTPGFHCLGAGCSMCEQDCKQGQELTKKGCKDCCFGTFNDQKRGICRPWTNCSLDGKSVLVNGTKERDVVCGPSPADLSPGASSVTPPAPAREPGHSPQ
human CD40, sequence (P25942 21-193 limits assumed): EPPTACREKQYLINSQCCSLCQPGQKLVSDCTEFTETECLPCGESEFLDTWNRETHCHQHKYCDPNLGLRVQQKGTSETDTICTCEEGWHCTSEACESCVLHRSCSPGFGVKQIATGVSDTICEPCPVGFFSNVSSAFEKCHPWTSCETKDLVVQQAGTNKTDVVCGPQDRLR

Row | Binder | % APC positive cells (hCD137-mFc-Avi) [%] | further results
1 | FS22-172-004, yeast-displayed clone (designed binder) GQPREPQVYTLPPSRDELNYIYPPYNQVSLTCLVKGFYPSDIAVEWESNGQPENNYKTTPPVLDSDGSFFLYSKLTVGADRWLEGNVFSCSVMHEALHNHYTQKSLSLSPG | > 10 | 
2 | FS22-053-008, yeast-displayed clone (designed binder) GQPREPQVYTLPPSRDELNPPYLFSNQVSLTCLVKGFYPSDIAVEWESNGQPENNYKTTPPVLDSDGSFFLYSKLTVDYWRWLEGNVFSCSVMHEALHNHYTQKSLSLSPG | > 30 | 
3 | FS22-053-009, yeast-displayed clone (designed binder) GQPREPQVYTLPPSRDELNPPYLFSNQVSLTCLVKGFYPSDIAVEWESNGQPENNYKTTPPVLDSDGSFFLYSKLTVEHTRWLDGNVFSCSVMHEALHNHYTQKSLSLSPG | > 30 | 
4 | FS22-172-001, yeast-displayed clone (designed binder) GQPREPQVYTLPPSRDELPFVMPPYNQVSLTCLVKGFYPSDIAVEWESNGQPENNYKTTPPVLDSDGSFFLYSKLTVGADRWLEGNVFSCSVMHEALHNHYTQKSLSLSPG | > 10 | 
5 | FS22-053-012, yeast-displayed clone (designed binder) GQPREPQVYTLPPSRDELNPPYLFSNQVSLTCLVKGFYPSDIAVEWESNGQPENNYKTTPPVLDSDGSFFLYSKLTVDHMRWLEGNVFSCSVMHEALHNHYTQKSLSLSPG | > 30 | 
6 | FS22-053-011, yeast-displayed clone (designed binder) GQPREPQVYTLPPSRDELNPPYLFSNQVSLTCLVKGFYPSDIAVEWESNGQPENNYKTTPPVLDSDGSFFLYSKLTVDYWRWTDGNVFSCSVMHEALHNHYTQKSLSLSPG | > 30 | 
7 | FS22-053-010, yeast-displayed clone (designed binder) GQPREPQVYTLPPSRDELNPPYLFSNQVSLTCLVKGFYPSDIAVEWESNGQPENNYKTTPPVLDSDGSFFLYSKLTVDYMRWLDGNVFSCSVMHEALHNHYTQKSLSLSPG | > 30 | 
8 | FS22-053-009/HelD1.3 (bispecific antibody, human IgG1, kappa, Mock mAb^2, IgG1 without LALA; also called FS22-053-009/HeID1.3) heavy: QVQLQESGPGLVRPSQTLSLTCTVSGSTFSGYGVNWVRQPPGRGLEWIGMIWGDGNTDYNSALKSRVTMLVDTSKNQFSLRLSSVTAADTAVYYCARERDYRLDYWGQGSLVTVSSASTKGPSVFPLAPSSKSTSGGTAALGCLVKDYFPEPVTVSWNSGALTSGVHTFPAVLQSSGLYSLSSVVTVPSSSLGTQTYICNVNHKPSNTKVDKKVEPKSCDKTHTCPPCPAPELLGGPSVFLFPPKPKDTLMISRTPEVTCVVVDVSHEDPEVKFNWYVDGVEVHNAKTKPREEQYNSTYRVVSVLTVLHQDWLNGKEYKCKVSNKALPAPIEKTISKAKGQPREPQVYTLPPSRDELNPPYLFSNQVSLTCLVKGFYPSDIAVEWESNGQPENNYKTTPPVLDSDGSFFLYSKLTVEHTRWLDGNVFSCSVMHEALHNHYTQKSLSLSPG light: DIQMTQSPASLSASVGETVTITCRASGNIHNYLAWYQQKQGKSPQLLVYNAKTLADGVPSRFSGSGSGTQYSLKINSLQPEDFGSYYCQHFWSTPRTFGGGTKLEIKRTVAAPSVFIFPPSDEQLKSGTASVVCLLNNFYPREAKVQWKVDNALQSGNSQESVTEQDSKDSTYSLSSTLTLSKADYEKHKVYACEVTHQGLSSPVTKSFNRGEC |  | binding result (human GITR): no binding (tested: starting at 1 µM); binding result (human OX40): no binding (tested: starting at 1 µM); binding result (human CD40): no binding (tested: starting at 1 µM); NF-kB signalling, HEK.FRT.luc.hCD137, +XL (EC50 nM) [1]: 64.6 nM
9 | FS22-172-002/HelD1.3 (bispecific antibody, human IgG1, kappa) heavy: QVQLQESGPGLVRPSQTLSLTCTVSGSTFSGYGVNWVRQPPGRGLEWIGMIWGDGNTDYNSALKSRVTMLVDTSKNQFSLRLSSVTAADTAVYYCARERDYRLDYWGQGSLVTVSSASTKGPSVFPLAPSSKSTSGGTAALGCLVKDYFPEPVTVSWNSGALTSGVHTFPAVLQSSGLYSLSSVVTVPSSSLGTQTYICNVNHKPSNTKVDKKVEPKSCDKTHTCPPCPAPELLGGPSVFLFPPKPKDTLMISRTPEVTCVVVDVSHEDPEVKFNWYVDGVEVHNAKTKPREEQYNSTYRVVSVLTVLHQDWLNGKEYKCKVSNKALPAPIEKTISKAKGQPREPQVYTLPPSRDELPFQMPPYNQVSLTCLVKGFYPSDIAVEWESNGQPENNYKTTPPVLDSDGSFFLYSKLTVGADRWLEGNVFSCSVMHEALHNHYTQKSLSLSPG light: DIQMTQSPASLSASVGETVTITCRASGNIHNYLAWYQQKQGKSPQLLVYNAKTLADGVPSRFSGSGSGTQYSLKINSLQPEDFGSYYCQHFWSTPRTFGGGTKLEIKRTVAAPSVFIFPPSDEQLKSGTASVVCLLNNFYPREAKVQWKVDNALQSGNSQESVTEQDSKDSTYSLSSTLTLSKADYEKHKVYACEVTHQGLSSPVTKSFNRGEC |  | NF-kB signalling, HEK.FRT.luc.hCD137, +XL (EC50 nM) [1]: 124 nM
10 | FS22-172-006/HelD1.3 (bispecific antibody, human IgG1, kappa) heavy: QVQLQESGPGLVRPSQTLSLTCTVSGSTFSGYGVNWVRQPPGRGLEWIGMIWGDGNTDYNSALKSRVTMLVDTSKNQFSLRLSSVTAADTAVYYCARERDYRLDYWGQGSLVTVSSASTKGPSVFPLAPSSKSTSGGTAALGCLVKDYFPEPVTVSWNSGALTSGVHTFPAVLQSSGLYSLSSVVTVPSSSLGTQTYICNVNHKPSNTKVDKKVEPKSCDKTHTCPPCPAPELLGGPSVFLFPPKPKDTLMISRTPEVTCVVVDVSHEDPEVKFNWYVDGVEVHNAKTKPREEQYNSTYRVVSVLTVLHQDWLNGKEYKCKVSNKALPAPIEKTISKAKGQPREPQVYTLPPSRDELRKYYPPYNQLSLTCLVKGFYPSDIAVEWESNGQPENNYKTTPPVLDSDGSFFLYSKLTVGADRWLEGNVFSCSVMHEALHNHYTQKSLSLSPG light: DIQMTQSPASLSASVGETVTITCRASGNIHNYLAWYQQKQGKSPQLLVYNAKTLADGVPSRFSGSGSGTQYSLKINSLQPEDFGSYYCQHFWSTPRTFGGGTKLEIKRTVAAPSVFIFPPSDEQLKSGTASVVCLLNNFYPREAKVQWKVDNALQSGNSQESVTEQDSKDSTYSLSSTLTLSKADYEKHKVYACEVTHQGLSSPVTKSFNRGEC |  | NF-kB signalling, HEK.FRT.luc.hCD137, +XL (EC50 nM) [1]: 382 nM
11 | FS22-053-010/HelD1.3 (bispecific antibody, human IgG1, kappa, Mock mAb^2, IgG1 without LALA; also called FS22-053-010/HeID1.3) heavy: QVQLQESGPGLVRPSQTLSLTCTVSGSTFSGYGVNWVRQPPGRGLEWIGMIWGDGNTDYNSALKSRVTMLVDTSKNQFSLRLSSVTAADTAVYYCARERDYRLDYWGQGSLVTVSSASTKGPSVFPLAPSSKSTSGGTAALGCLVKDYFPEPVTVSWNSGALTSGVHTFPAVLQSSGLYSLSSVVTVPSSSLGTQTYICNVNHKPSNTKVDKKVEPKSCDKTHTCPPCPAPELLGGPSVFLFPPKPKDTLMISRTPEVTCVVVDVSHEDPEVKFNWYVDGVEVHNAKTKPREEQYNSTYRVVSVLTVLHQDWLNGKEYKCKVSNKALPAPIEKTISKAKGQPREPQVYTLPPSRDELNPPYLFSNQVSLTCLVKGFYPSDIAVEWESNGQPENNYKTTPPVLDSDGSFFLYSKLTVDYMRWLDGNVFSCSVMHEALHNHYTQKSLSLSPG light: DIQMTQSPASLSASVGETVTITCRASGNIHNYLAWYQQKQGKSPQLLVYNAKTLADGVPSRFSGSGSGTQYSLKINSLQPEDFGSYYCQHFWSTPRTFGGGTKLEIKRTVAAPSVFIFPPSDEQLKSGTASVVCLLNNFYPREAKVQWKVDNALQSGNSQESVTEQDSKDSTYSLSSTLTLSKADYEKHKVYACEVTHQGLSSPVTKSFNRGEC |  | binding result (human GITR): no binding (tested: starting at 1 µM); binding result (human OX40): no binding (tested: starting at 1 µM); binding result (human CD40): no binding (tested: starting at 1 µM); NF-kB signalling, HEK.FRT.luc.hCD137, +XL (EC50 nM) [1]: 47.5 nM

More lines, main results first:

Row | % APC positive cells (hCD137-mFc-Avi) [%] | Binder | further results
12 | > 10 | FS22-172-003, yeast-displayed clone (designed binder) GQPREPQVYTLPPSRDELPYIIPPYNQVSLTCLVKGFYPSDIAVEWESNGQPENNYKTTPPVLDSDGSFFLYSKLTVGADRWLEGNVFSCSVMHEALHNHYTQKSLSLSPG | 
13 | > 10 | FS22-172-006, yeast-displayed clone (designed binder) GQPREPQVYTLPPSRDELRKYYPPYNQLSLTCLVKGFYPSDIAVEWESNGQPENNYKTTPPVLDSDGSFFLYSKLTVGADRWLEGNVFSCSVMHEALHNHYTQKSLSLSPG | 
14 | > 10 | FS22-172-005, yeast-displayed clone (designed binder) GQPREPQVYTLPPSRDELQQVYPPYNQVSLTCLVKGFYPSDIAVEWESNGQPENNYKTTPPVLDSDGSFFLYSKLTVGADRWLEGNVFSCSVMHEALHNHYTQKSLSLSPG | 
15 | > 10 | FS22-172-002, yeast-displayed clone (designed binder) GQPREPQVYTLPPSRDELPFQMPPYNQVSLTCLVKGFYPSDIAVEWESNGQPENNYKTTPPVLDSDGSFFLYSKLTVGADRWLEGNVFSCSVMHEALHNHYTQKSLSLSPG | 
